In patent US20220389406A1:

Target: HLA-A*02:01-restricted MART-1 epitope, A*02:0
Assay: cell-based or functional assay

frequency of the TCR in post-real-selection (CD137-positive, sorted) against pre-selection polyclonal TCR-T cells, by NGS: 10 fold
Substance: DMF4 (TCR)
